Results reported in paper PMC10318465, “A heme pocket aromatic quadrupole modulates gas binding to cytochrome c′-β: Implications for NO sensors” (The Journal of Biological Chemistry, 2023).

Columns and labels:
[1] = target: His123 (UniProt position 143, GCFGCHAAQKE); assay: UV-vis; conditions: 1x MHTCP cocktail buffer (5x stock: 500 mM CAPS, 250 mM Mes, 250 mM Hepes, 250 mM Pipes, 250 mM TAPS), sodium dithionite, excess PROLI NONOate, Ferrous heme-nitrosyl Fe(II)NO complex, 5 uM protein, equilibrium between 5cNO (His 123 dissociated) and 6cNO (His 123 bound)
[2] = Literature kinetic parameters of six-coordinate Fe(II)CO complexes of selected heme proteins; assay type: binding; conditions: from literature koff(CO) values of Table 4
[3] = parameters: method as in earlier work; conditions: 6cCO, ref AxCP-α [9],[56], L16A [9],[10], Mb pig wt and V68T [57], H64V,V68T [25], sGC [17],[58], Ns H-NOX [16], cited from earlier work; for Kd: read-out: Kd(CO)
[4] = 6cNO; ref AxCP-α [9],[56]; L16A [9],[10]; Mb pig wt and V68T [57]; sGC [17],[58]; Ns H-NOX [16]; cited from earlier work

Molecule	pKa [1]	increase of koff(CO) relative to wt Mb [2] [fold]	koff(CO) [3] [s⁻¹]	kon(CO) [3] [M⁻¹ s⁻¹]	Kd [3] [nM]	kon(NO) [4] [M⁻¹ s⁻¹]
Cytochrome c'-beta (McCP-beta) (Methylococcus capsulatus (Bath))	7.17 ± 0.03	–	–	–	–	–
V68T: V68T variant of pig myoglobin (Mb) (protein, UniProt P02189 2-154, looked up, variant V68T) Myoglobin: GLSDGEWQLVLNVWGKVEADVAGHGQEVLIRLFKGHPETLEKFDKFKHLKSEDEMKASEDLKKHGNTTLTALGGILKKKGHHEAELTPLAQSHATKHKIPVKYLEFISEAIIQVLQSKHPGDFGADAQGAMSKALELFRNDMAAKYKELGFQG	–	~4	0.079	610000	130	4.9e+06
Mb pig (wt): wild-type pig myoglobin (protein, UniProt P02189 2-154, looked up) Myoglobin: GLSDGEWQLVLNVWGKVEADVAGHGQEVLIRLFKGHPETLEKFDKFKHLKSEDEMKASEDLKKHGNTVLTALGGILKKKGHHEAELTPLAQSHATKHKIPVKYLEFISEAIIQVLQSKHPGDFGADAQGAMSKALELFRNDMAAKYKELGFQG	–	–	0.019	780000	24	1.7e+07
H64V, V68T: H64V/V68T Mb double variant (protein, UniProt P02189 2-154, looked up, variant H64V V68T) Myoglobin: GLSDGEWQLVLNVWGKVEADVAGHGQEVLIRLFKGHPETLEKFDKFKHLKSEDEMKASEDLKKVGNTTLTALGGILKKKGHHEAELTPLAQSHATKHKIPVKYLEFISEAIIQVLQSKHPGDFGADAQGAMSKALELFRNDMAAKYKELGFQG	–	~3	0.063	2.7e+07	2.3	–
